{
  "source": "patent US20160304608A1",
  "about": "(published 2016)",
  "key": {"human FcRn (hFcRn) [1]": {"target": "T1, human FcRn (hFcRn) (human, UniProt P55899 24-297; P16213 21-119, limits assumed)", "T1 construct": "hFcRn was the soluble analyte in SPR; also called FcRn analyte", "T1 sequence (P55899 24-297 limits assumed, chain 1 of 2)": "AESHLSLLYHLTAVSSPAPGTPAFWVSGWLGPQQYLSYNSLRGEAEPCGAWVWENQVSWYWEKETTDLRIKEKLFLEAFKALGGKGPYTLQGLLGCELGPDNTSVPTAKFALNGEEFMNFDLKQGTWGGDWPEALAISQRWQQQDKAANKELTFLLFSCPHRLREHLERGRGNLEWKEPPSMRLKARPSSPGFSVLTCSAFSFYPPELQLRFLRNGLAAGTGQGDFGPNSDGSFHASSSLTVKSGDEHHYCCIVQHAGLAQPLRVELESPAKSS", "T1 sequence (P16213 21-119 limits assumed, chain 2 of 2)": "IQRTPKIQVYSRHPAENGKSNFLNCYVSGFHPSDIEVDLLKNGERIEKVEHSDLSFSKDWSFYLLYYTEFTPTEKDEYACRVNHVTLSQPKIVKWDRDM", "experiment": "SPR (Biacore 3000), antibody amine-coupled on CM5, hFcRn analyte, pH 6.0, 25 C, 1:1 model", "description": "SPR measurements were performed using a Biacore 3000. […] The sensor chip surface was regenerated with a 30 sec pulse of 10 mM glycine pH 1.5 at a flow rate of […] followed by a 15 second pulse of buffer. Measurements were performed at 25° C. using HBS-P as the running buffer. The reference flow cell was activated and blocked in a mock amine coupling reaction. The data was fit to a 1:1 binding model using Biaevalution v.4.1 software."}, "human FcRn (hFcRn) [2]": {"target": "T1, human FcRn (hFcRn)", "experiment": "SPR (Biacore 3000), antibody amine-coupled on CM5, hFcRn analyte, pH 7.5, 25 C, 1:1 model"}},
  "data": [
    {"binder": "532A-X54-B03 (cys to ala mutant of DX-2504) (antibody, V domains shown, also called 532-X54-B03; 532A-X53-B03) VH: EVQLLESGGGLVQPGGSLRLSCAASGFTFSEYAMGWVRQAPGKGLEWVSSIGSSGGQTKYADSVKGRFTISRDNSKNTLYLQMNSLRAEDTAVYYCARLAIGDSYWGQGTMVTVSS VL: QSALTQPASVSGSPGQSITISCTGTGSDVGSYNLVSWYQQHPGKAPKLMIYGDSQRPSGVSNRFSGSKSGNTASLTISGLQAEDEADYYCASYAGSGIYVFGTGTKVTVL", "values": [
      {"measurement": "Kd", "setting": "human FcRn (hFcRn) [1]", "value": 1.8, "unit": "nM"},
      {"measurement": "Kd", "setting": "human FcRn (hFcRn) [2]", "value": 2, "unit": "nM"},
      {"measurement": "kon", "setting": "human FcRn (hFcRn) [2]", "value": 110000, "unit": "M⁻¹ s⁻¹"}
    ]},
    {"binder": "532A-X53-C02 (cys to ser mutant of DX-2504) (antibody, V domains shown, also called C54-C02) VH: EVQLLESGGGLVQPGGSLRLSCAASGFTFSEYAMGWVRQAPGKGLEWVSSIGSSGGQTKYADSVKGRFTISRDNSKNTLYLQMNSLRAEDTAVYYCARLAIGDSYWGQGTMVTVSS VL: QSALTQPASVSGSPGQSITISCTGTGSDVGSYNLVSWYQQHPGKAPKLMIYGDSQRPSGVSNRFSGSKSGNTASLTISGLQAEDEADYYCSSYAGSGIYVFGTGTKVTVL", "values": [
      {"measurement": "Kd", "setting": "human FcRn (hFcRn) [1]", "value": 1.4, "unit": "nM"},
      {"measurement": "koff", "setting": "human FcRn (hFcRn) [1]", "value": 0.00043, "unit": "s⁻¹"},
      {"measurement": "kon", "setting": "human FcRn (hFcRn) [1]", "value": 310000, "unit": "M⁻¹ s⁻¹"},
      {"measurement": "Kd", "setting": "human FcRn (hFcRn) [2]", "value": 1.7, "unit": "nM"},
      {"measurement": "koff", "setting": "human FcRn (hFcRn) [2]", "value": 0.00032, "unit": "s⁻¹"},
      {"measurement": "kon", "setting": "human FcRn (hFcRn) [2]", "value": 190000, "unit": "M⁻¹ s⁻¹"}
    ]},
    {"binder": "DX-2504 anti-FcRn antibody (antibody, human IgG1, lambda, It was immobilized by amine coupling in the SPR assay) heavy: not shown light: QSALTQPASVSGSPGQSITISCTGTGSDVGSYNLVSWYQQHPGKAPKLMIYGDSQRPSGVSNRFSGSKSGNTASLTISGLQAEDEADYYCCSYAGSGIYVFGTGTKVTVLGQPKANPTVTLFPPSSEELQANKATLVCLISDFYPGAVTVAWKADGSPVKAGVETTKPSKQSNNKYAASSYLSLTPEQWKSHRSYSCQVTHEGSTVEKTVAPTECS", "values": [
      {"measurement": "Kd", "setting": "human FcRn (hFcRn) [1]", "value": 1.5, "unit": "nM"},
      {"measurement": "koff", "setting": "human FcRn (hFcRn) [1]", "value": 0.00035, "unit": "s⁻¹"},
      {"measurement": "kon", "setting": "human FcRn (hFcRn) [1]", "value": 240000, "unit": "M⁻¹ s⁻¹"},
      {"measurement": "Kd", "setting": "human FcRn (hFcRn) [2]", "value": 1.9, "unit": "nM"},
      {"measurement": "koff", "setting": "human FcRn (hFcRn) [2]", "value": 0.00028, "unit": "s⁻¹"},
      {"measurement": "kon", "setting": "human FcRn (hFcRn) [2]", "value": 150000, "unit": "M⁻¹ s⁻¹"}
    ]}
  ]
}
